These results are taken from publication PMC11246345.

In one assay the target is VEGF-A 165. The experiment in a line: ELISA. For orientation: ELISA stands for enzyme-linked immunosorbent assay.
For another assay, the target named is VEGF-A 189. Put plainly: ELISA.

On to US-aflibercept (Fc fusion), for which the %relative binding activity (against a reference standard) with VEGF-A 165 and in the assay with VEGF-A 189 was 97% throughout.
